Measured values from article PMC6364671.

Molecular target: recombinant human CD74 (C27S) (human) (UniProt P04233)
Test: ELISA

IC50	Substance
1640 nM	DRα1-hMOG-35-55 (from UniProt P01903 15-97)
937 nM	DRα1-mMOG-35-55
